Literature values, collected in US20230173142A1, “BALLISTIC DELIVERY TO MULTILAYERED TISSUES AND RELATED PARTICLES, COMPOSITIONS, METHODS AND SYSTEMS” (CALIFORNIA INSTITUTE OF TECHNOLOGY, priority 2021, published 2023).

Tested on: wound healing
Settings: Material: Nanofiber

B1: G-CSF: granulocyte colony-stimulating factor (protein, UniProt P09919 31-207, looked up)
Granulocyte …: TPLGPASSLPQSFLLKCLEQVRKIQGDGAALQEKLVSECATYKLCHPEELVLLGHSLGIPWAPLSSCPSQALQLAGCLSQLHSGLFLYQGLLQALEGISPELGPTLDTLQLDVADFATTIWQQMEELGMAPALQPTQGAMPAFASAFQRRAGGVLVASHLQSFLEVSYRVLRHLAQP
In the case of B1, the Effect is given as “Improved wound closure, scar reduction, fibroblast maturation, as well”.
